Measured values reported in PMC3518219 (The Journal of Cell Biology, 2012).

Target: T1, GST-RadilPDZ (human, UniProt Q96JH8 870-1075)
T1 sequence (looked up): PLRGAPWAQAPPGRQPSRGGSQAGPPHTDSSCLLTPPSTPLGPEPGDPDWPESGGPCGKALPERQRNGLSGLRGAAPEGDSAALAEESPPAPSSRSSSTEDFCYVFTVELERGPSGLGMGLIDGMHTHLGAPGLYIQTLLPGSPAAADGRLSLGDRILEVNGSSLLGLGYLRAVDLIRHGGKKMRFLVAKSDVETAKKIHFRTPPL
Assay: pull-down

- binding result: binds
B1: Flag-KIF14-ctail-IQWV (domain or fragment, human, UniProt Q15058 1483-1648, looked up)
chain: VQEENFEYQDFKRMVNRAPEFLKLKHCLEKAIEIIISALKGCHSDINLLQTCVESIRNLASDFYSDFSVPSTSVGSYESRVTHIVHQELESLAKSLLFCFESEESPDLLKPWETYNQNTKEEHQQSKSSGIDGSKNKGVPKRVYELHGSSPAVSSEECTPSRIQWV
